Measured values as given in the nanobody polyreactivity screen of Harvey et al. (2022).

assay: yeast display, Sf9 membrane polyspecificity reagent, FACS + sequencing; frameworks hold sequencing errors
How it was run: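 In a synthetic yeast display library (Saccharomyces cerevisiae BJ5465), nanobody expression was induced with galactose for 36–48 hours. FACS gates were set low and high (top ~1%) using anti-HA fluorescence for expression and streptavidin fluorescence for binding of the Sf9 membrane reagent. Each polyreactivity label is drawn from the gate of origin.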

Question: With “QVQLVESGGGLVQAGGSLRLSCAASGLIFLYNPMGWYRQAPGKEREFVAAITSVDSTKYADSVKGRFTISRENAKNTVYLQLNSLKPEDTAVYYCAAVPRYQYGYWGQGTQVTVSS” as the sequence, how does the “polyreactivity (PSR sort gate)” value read?
Answer: The value was “low polyreactivity”.

Question: For “QVQLVESGGGLVQAGGSLRLSCAASGLIFNWNDMGWYRQAPGKERELVAAISGDGGITYYADSVKGRFTISRDNAKNTVYLQMNSLKPEDTAVYYCNAGFTWGDWYDYWGQGTQVTVSS”, which “polyreactivity (PSR sort gate)” value is on record?
Answer: Its value is “low polyreactivity”.

Question: With “QVQLVESGGGLVQAGGSLRLSCAASGLIFNYNSMGWYLQAPGKEMELVAVITSGDSTNYADSVKGRFTISRDNAKNTVYLQMNSLKPEDTAVYYCNADYVYSGGRYYGKDYWFDYWGQGTQVTVSS” as the sequence, how does the “polyreactivity (PSR sort gate)” value read?
Answer: Its value is “low polyreactivity”.

Question: For “QVQLVESGGGLVQAGGSLRLSCAASGLIFPGYAMGWYRPAPGKERELVAAISGSGGSTYYADSVKGRFTISRDNAKNTVYLQMNSLKPEDTAVYYCSTSGPQYYSRNFDYWGQGTQVTVSS”, which “polyreactivity (PSR sort gate)” value is on record?
Answer: The value was “low polyreactivity”.

Question: For “QVQLVESGGGLVQAGGSLRLSCAASGLIFPKYAMGWYRQAPGNEREFVAAISGRGGTTYYADSVKGRFTISRDNAKNTVYLQMNSLKPEDTAVYYCAAGGPWANIYGNGYWGQGTQVTVSS”, which “polyreactivity (PSR sort gate)” value is on record?
Answer: Its value is “high polyreactivity”.

Question: Which “polyreactivity (PSR sort gate)” value does the source give for “QVQLVESGGGLVQAGGSLRLSCAASGLIFPPNVMGWYRQAPWKERELVAAITSSGSTKYADSVKGRFTISRDNAKNTVYLQMNSLKPEDTAVYYCARDQTWSYQPWYYLSYPQYEYWGQGTQVTVSS” here?
Answer: Its value is “low polyreactivity”.

Question: With “QVQLVESGGGLVQAGGSLRLSCAASGLIFPPYAMGWYRQAPGKEREFVARISWSTSSTYYADSVKGRFTISRDNAKNTVYLQMNSLKPEDTAVYYCNARFDDWWGEFDYWGQGTQVTVSS” as the sequence, how does the “polyreactivity (PSR sort gate)” value read?
Answer: The value was “high polyreactivity”.

Question: With “QVQLVESGGGLVQAGGSLRLSCAASGLIFPVYVMGWYRQAPGKEREFVAAITWSTSTYYADSVKGRFTISRDNAKNTVYLQMNSLKPEDTAVYYCNARRGWYSPIYYYWGQGTQVTVSS” as the sequence, how does the “polyreactivity (PSR sort gate)” value read?
Answer: Its value is “high polyreactivity”.

Question: For “QVQLVESGGGLVQAGGSLRLSCAASGLIFQTYAMGWSRQAPGKERELVATISGSTGGTYYADSVKGRFTISRDNAKNTVYLQMNSLKPEDTAVYYCNASVFQSEYDYWGQGTQVTVSS”, which “polyreactivity (PSR sort gate)” value is on record?
Answer: Its value is “low polyreactivity”.

Question: With “QVQLVESGGGLVQAGGSLRLSCAASGLIFQVYDIGWYRQAPGKERELVAAISSGSNTNYADSVKGRFTISRDNAKNTVYLQMNSLKPEDTAVYYCAADFQYYFFWEEDYWGQGTQVTVSS” as the sequence, how does the “polyreactivity (PSR sort gate)” value read?
Answer: The value was “low polyreactivity”.

Question: For “QVQLVESGGGLVQAGGSLRLSCAASGLIFQVYDMGWYRQAPGKERELDAAISSGSNTNYADSVKGRFTISRDNAKNTVYLQMNSLIPEDTAVYYCAASWGYGGLTPDMGYWGQGTHVTVSS”, which “polyreactivity (PSR sort gate)” value is on record?
Answer: The value was “low polyreactivity”.

Question: Which “polyreactivity (PSR sort gate)” value does the source give for “QVQLVESGGGLVQAGGSLRLSCAASGLIFRHYVMGWYRQAPGKERELVAAITSRGGTTYYADSVKGRFTISRDNAKNTVYLQMNSLKPEDTAVYYCATVHSYTIQRYDYWGQGTQVTVSS” here?
Answer: The value was “high polyreactivity”.

Question: For “QVQLVESGGGLVQAGGSLRLSCAASGLIFRKNAMGWYRQAPGKERELVAAISSSDSSTYADSVKGRFTISRDNAKNTVYLQMYSLKPEDTAVYYCAAASYNWLDWVTREYWGQGTQVTVSS”, which “polyreactivity (PSR sort gate)” value is on record?
Answer: The value was “low polyreactivity”.

Question: With “QVQLVESGGGLVQAGGSLRLSCAASGLIFRQYAMGWYRPAPGKERELVAAITQTGGRTYYADSVKGRFTISRDNAKNTVYLQMNSLKPEDTAVYYCNALTFAAGDHYDYWGQGTQVTVSS” as the sequence, how does the “polyreactivity (PSR sort gate)” value read?
Answer: Its value is “low polyreactivity”.

Question: With “QVQLVESGGGLVQAGGSLRLSCAASGLIFRRYAMGWYRQAPGKEREFVAAISWSGGSTYYADSVKGRFTISRDNAKNTVYLQMNSLKPEDTAVYYCAARYRFGGIRRYNYWGQGTQVTVSS” as the sequence, how does the “polyreactivity (PSR sort gate)” value read?
Answer: Its value is “high polyreactivity”.

Question: For “QVQLVESGGGLVQAGGSLRLSCAASGLIFRRYAMGWYRQAPGKERELVAAISRTGGTTYYADSVKGRFTISRDNAKNTVYLQMNSLKPEDTAVYYCAAAGQGPDYDYWGQGTQVTVSS”, which “polyreactivity (PSR sort gate)” value is on record?
Answer: Its value is “high polyreactivity”.

Question: With “QVQLVESGGGLVQAGGSLRLSCAASGLIFRTYAMGWNRQAPGKERELVAAIRGGGSTNYADSVNGRFTISRDNAKNTVYLQMNSLKPEDTAVYYCAALVYAVTRRRVQGYGYDYWGQGTQVTVSS” as the sequence, how does the “polyreactivity (PSR sort gate)” value read?
Answer: The value was “low polyreactivity”.
